This passage reports bead assay binding signal results from US20220356229A1.

Substitutions are numbered along the chain they refer to.

Test [1] addresses SARS-CoV-2 full length Spike protein, lineage B.1.351 (SARS-CoV-2).
Test [2] has as its target SARS-CoV-2 full length Spike protein, lineage B.1.1.7 (SARS-CoV-2).

B1: antibody 896 (antibody, V domains shown)
VH: EVQLVESGGGVVQPGGSLRLSCAASGFTFDDYAMHWVRQVPGKGLEWVSLISGDGGSTYYADSVKGRFTISRDNSKNSLYVQMNSLRTEDTALYYCVKDRGGSGWDLNHYYYGMDVWGQGTTVTVSS
VL: DIQLTQSPSFLSASVGDRVTVTCRASQGISSYLAWYQQKPGKAPKLLIYAAYTLQSGVPSRFSGSGSETEFTLTISSLQPEDFATYYCQQVKSYPLTFGGGTKVEIKR
Consider B1, for which the bead assay binding signal in test [1] is 946; in test [2] it was 692.

B2: antibody 1538 (antibody, V domains shown)
VH: EVQLLESGGGLVQPGGSLRLSCAASGFTFSSYAMSWVRQAPGKGLEWVSGISDSGGSTYYADYVKGRFTISRDNSKDTLYLQMNSLRAEDTAVYYCAKDRGNEYALTHYYYYAMDVWGQGTTVTVSS
VL: DIQMTQSPSSLSASVGDRVTITCRASQSISSYLNWYQQKPGKAPKLLIYAAYSLQSGVPSRFSGGGSGTDFTLTISSLQPEDFATYFCQQSYSTPITFGQGTRLEIKR
Turning to B2, the figures for the bead assay binding signal in test [1] and in test [2] were 928 and 706, respectively.

B3: antibody 1037 (antibody, V domains shown)
VH: QITLKESGPTLVKPTQTLTLTCTFSGFSLSTSGVGVGWIRQPPGKALEWLALIYWDDDKRYSPSLKSRLTITKDTSKNQVVLTMTNMDPVDTATYYCAHHTITRINDYWGQGTLVTVSS
VL: QSALTQPASVSGSPGQSITISCTATSSDVGAYNYVSWYQQHPGKAPKLMIYDVSKRPSGVSNRFSGSKSGNTASLTISGLQAEDEADYYCSSYTSSSTVFGGGTKLTVLG
For the molecule B3, the bead assay binding signal in test [1] worked out at 985; in test [2], 749.

B4: antibody 1404 (antibody, V domains shown)
VH: B3 VH with T31I, I39L, T72S, T83K, M87I, T101S, T103S, R104T, N106F, Y108H
VL: B3 VL with A31D, Y51F, D52E, K55D, V60I, S95T, T98A
As for B4, the bead assay binding signal stood at 941 in test [1] and 719 in test [2].

B5: antibody 851 (antibody, V domains shown)
VH: QITLKESGPTLVKPTQTLTLTCTFSGFSLSTNGVGMGWIRQPPGKALEWLALIYWDDDQFYSPSLKSRLTITRDTSKNQVVLTMTNMDPVDTATYYCAQAFYESFGFYSWGQGTLVTVSS
VL: NFMLTQPHSVSESPGKTVIISCTRSIGSIASNYVQWYQQRPGSAPTIVVFEDNERPSGVPDRFSGSIDRSSNSASLTISGLKTEDEADYYCQSYDGSSELVFGGGTKLTVLG
Regarding B5, the bead assay binding signal came out at 681 in test [1] and 545 in test [2].

B6: antibody 1444 (antibody, V domains shown)
VH: QVQLVQSGAEVKKPGASVKVSCKASGYTFTAYYMHWVRQAPGQGLEWMGWINPNSDDTNYAQKFQGRVTMTRDTSISTAYMELSRLRSDDTAVYYCAREEGVFTIGDRYFDLWGRGTLVSVSS
VL: QTVVTQEPSFSVSPGGTVTLTCGLSSGSVSTSYYPSWYQQTPGQAPRTLIYNTNTRSSGVPDRFSGSILGNKAALTITGAQADDESDYYCVLYMGSGIWVFGGGTKLTVLG
Take B6: the bead assay binding signal in test [1] amounted to 802; in test [2] it was 626.

B7: antibody 923 (antibody, V domains shown)
VH: EVQLVESGGGVVRPGGSLRLSCAASGFIFDDYDMTWVRQAPGKGLEWVSGISWNGGNTGYADSVKGRFTISRDNAKNSLYLQMNSLRAEDTALYHCAVIMSPIPRYSGYDWAGGAFDIWGQGTMVTVSS
VL: SSELTQDPAVSVALGQTVRITCQGDSLRSYYASWYQQKPGQVPILVIYDKNNRPSGIPDRFSGSSSGNTASLTITGAQAEDEADYYCNSRDSSGNAVVFGGGTKLTVLG
Take B7: the values for the bead assay binding signal in test [1] and in test [2] were 435 and 604, respectively.
